In patent publication US20130224145A1 one finds cytotoxicity relative to the anti-Fas antibody and dead cells (Propidium Iodide staining of Jurkat T cells after 24 hr) data, which are given here for 1 substance.

For this test, the target named is Fas on the cell surface of human Jurkat T cell line (human) (UniProt P25445). As to the kind of experiment: cell-based or functional assay.
Chain of UniProt P25445 (P25445 26-335): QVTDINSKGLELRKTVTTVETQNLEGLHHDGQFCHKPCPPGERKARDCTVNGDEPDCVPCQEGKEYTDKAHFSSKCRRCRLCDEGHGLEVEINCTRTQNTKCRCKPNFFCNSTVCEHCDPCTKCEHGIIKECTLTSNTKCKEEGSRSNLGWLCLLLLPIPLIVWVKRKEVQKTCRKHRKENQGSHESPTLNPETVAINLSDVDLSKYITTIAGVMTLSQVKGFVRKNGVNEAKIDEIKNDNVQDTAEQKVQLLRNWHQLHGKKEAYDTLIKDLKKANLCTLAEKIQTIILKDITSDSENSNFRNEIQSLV

The substance “streptavidin-FasL fusion protein (SAFasL) (from UniProt P48023 103-281) (ligand)” came in with a cytotoxicity relative to the anti-Fas antibody of 3 times and a dead cells (Propidium Iodide staining of Jurkat T cells after 24 hr) of 87%.
